Here are results for five molecules from patent US20190194291A1 (Hoffmann-La Roche, published 2019).

For one test, the target named is T1, cyCD19 ECD (cynomolgus, UniProt A0A2K5W8L9 20-292).
T1 construct: extracellular domain; also called cynomolgus CD19 extracellular domain; cynomolgus CD19
T1 sequence: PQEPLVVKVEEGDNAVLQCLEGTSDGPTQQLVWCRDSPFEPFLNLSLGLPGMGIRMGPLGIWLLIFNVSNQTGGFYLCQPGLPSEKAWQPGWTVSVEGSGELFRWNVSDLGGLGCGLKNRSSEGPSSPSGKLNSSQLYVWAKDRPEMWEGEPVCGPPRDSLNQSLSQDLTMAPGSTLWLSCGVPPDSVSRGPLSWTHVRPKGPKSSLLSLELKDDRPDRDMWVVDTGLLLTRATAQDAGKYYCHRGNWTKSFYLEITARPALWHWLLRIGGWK
Nature of the test: binding to CD19 ECD, method not stated.

The target in test [1] is T2, human CD19 (antigen of Table 9, construct not stated) (human, UniProt P15391 20-291, limits assumed).
T2 sequence: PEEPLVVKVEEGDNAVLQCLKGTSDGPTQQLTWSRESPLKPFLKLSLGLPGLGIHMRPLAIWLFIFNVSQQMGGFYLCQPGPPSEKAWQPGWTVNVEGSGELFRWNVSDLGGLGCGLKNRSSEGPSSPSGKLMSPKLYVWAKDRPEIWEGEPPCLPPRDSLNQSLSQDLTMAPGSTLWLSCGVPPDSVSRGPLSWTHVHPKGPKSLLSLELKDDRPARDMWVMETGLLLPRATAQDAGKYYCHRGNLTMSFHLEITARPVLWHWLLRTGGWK
Briefly: BIAcore (SPR), format not stated.

Another test has as its target T3, huCD19 ECD (human, UniProt P15391 20-291).
T3 construct: also called human CD19 extracellular domain
T3 sequence: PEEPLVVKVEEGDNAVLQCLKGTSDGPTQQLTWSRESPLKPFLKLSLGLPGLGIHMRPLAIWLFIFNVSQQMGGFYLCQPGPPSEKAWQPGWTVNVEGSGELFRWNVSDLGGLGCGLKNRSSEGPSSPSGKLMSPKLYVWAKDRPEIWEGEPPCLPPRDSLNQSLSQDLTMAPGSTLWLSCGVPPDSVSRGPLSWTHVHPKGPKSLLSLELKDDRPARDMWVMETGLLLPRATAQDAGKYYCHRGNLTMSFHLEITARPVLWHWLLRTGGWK
Briefly: binding to CD19 ECD, method not stated.

Test [2] deals with T2, human CD19 (antigen of Table 9, …). Briefly: listed under the BIAcore KD; taken as half-life of the complex.
The target of test [3] is T4, monomeric human CD19 antigen Fc(kih) fusion molecule (human, UniProt P0DOX5 223-449 = IgG part).
T4 construct: Heterodimeric Fc fusion with a single copy of the CD19 ectodomain; also called human CD19 Fc(kih); Recombinant human CD19
Nature of the test: SPR (ProteOn XPR36): Fab from bacterial supernatant captured on anti-human Fab antibody, monomeric CD19-Fc 150-6 nM as analyte, 1:1 Langmuir fit. The method, then:
In order to further characterize the ELISA-positive clones, the off-rate was measured by surface plasmon resonance and compared with the parental humanized clone 8B8.
For this experiment, 7000 RU of polyclonal anti-human Fab antibody were immobilized on all 6 channels of a GLM chip by Amine coupling (NaAcetate pH4.5, 25 μl/min, 240 s) (vertical orientation). Each antibody-containing bacterial supernatant was filtered and 2-fold diluted with PBS, and then injected for 360 s at 25 μl/minute to achieve immobilization levels of between 100 and 400 response units (RU) in vertical orientation. […] Regeneration was performed by two pulses of 10 mM glycine pH 1.5 and 50 mM NaOH for 30 s at 90 ul/min (horizontal orientation). Dissociation rate constants (koff) were calculated using a simple one-to-one Langmuir binding model in ProteOn Manager v3.1 software by simultaneously fitting the sensorgrams. […] The variable domains of the corresponding phagemids were sequenced.

Test [4] addresses T5, human CEA expressed on MKN45 cells (human, UniProt P06731 35-685).
T5 construct: also called CEA-expressing human gastric adenocarcinoma cells (MKN45)
T5 sequence: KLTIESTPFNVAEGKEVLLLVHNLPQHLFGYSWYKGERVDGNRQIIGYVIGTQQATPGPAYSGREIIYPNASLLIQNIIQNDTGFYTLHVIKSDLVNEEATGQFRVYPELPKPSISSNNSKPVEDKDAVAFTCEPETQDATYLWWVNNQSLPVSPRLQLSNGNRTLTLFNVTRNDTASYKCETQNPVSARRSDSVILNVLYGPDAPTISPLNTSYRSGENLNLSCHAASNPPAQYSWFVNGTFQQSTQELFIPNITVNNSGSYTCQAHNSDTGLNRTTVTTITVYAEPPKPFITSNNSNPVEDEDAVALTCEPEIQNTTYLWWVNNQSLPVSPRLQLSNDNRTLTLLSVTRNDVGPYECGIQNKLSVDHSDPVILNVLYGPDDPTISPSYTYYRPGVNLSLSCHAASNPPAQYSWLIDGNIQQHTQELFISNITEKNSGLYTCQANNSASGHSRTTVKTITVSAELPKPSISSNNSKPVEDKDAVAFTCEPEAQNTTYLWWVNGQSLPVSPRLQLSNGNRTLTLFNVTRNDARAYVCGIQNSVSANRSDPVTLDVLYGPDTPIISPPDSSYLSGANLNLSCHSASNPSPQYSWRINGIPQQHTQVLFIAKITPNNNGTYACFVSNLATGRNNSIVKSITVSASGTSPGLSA
Briefly: flow cytometry on CEA-expressing MKN45 cells, PE anti-human IgG Fc detection. Here is the method: The binding of different humanized variants of T84.66 IgG was tested on CEA-expressing human gastric adenocarcinoma cells (MKN45, DSMZ ACC 409).
Cells were harvested, counted, checked for viability and re-suspended at 2×10⁶ cells/ml in FACS buffer (100 μl PBS 0.1% BSA). […] Binding curves and EC50 values were obtained and calculated using GraphPadPrism5.

B1: wild-type humanized anti-human CD19 antibody 8B8 (antibody, V domains shown)
VH: QVQLVQSGAEVKKPGASVKVSCKASGYTFTDYIMHWVRQAPGQGLEWMGYINPYNDGSKYTEKFNGRVTMTSDTSISTAYMELSRLRSDDTAVYYCARGTYYYGSALFDYWGQGTTVTVSS
VL: DIVMTQTPLSLSVTPGQPASISCKSSQSLENSNGNTYLNWYLQKPGQSPQLLIYRVSKRFSGVPDRFSGSGSGTDFTLKISRVEAEDVGVYYCLQLTHVPYTFGQGTKLEIK
Consider B1, for which the half-maximal effective concentration (EC50) in the test with cyCD19 ECD amounted to 0.313 µg/mL.

B2: humanized anti-human CD19 antibody clone 8B8-018 (antibody, V domains shown)
VH: QVQLVQSGAEVKKPGASVKVSCKASGYTFTDYIMHWVRQAPGQGLEWMGYINPYNDGSKYTEKFQGRVTMTSDTSISTAYMELSRLRSDDTAVYYCARGTYYYGSALFDYWGQGTTVTVSS
VL: DIVMTQTPLSLSVTPGQPASISCKSSQSLENPNGNTYLNWYLQKPGQSPQLLIYRVSKRFSGVPDRFSGSGSGTDFTLKISRVEAEDVGVYYCLQLTHVPYTFGQGTKLEIK
Molecule B2 returned a dissociation constant (Kd) in test [1] of 6 nM. Also, the 50% effective concentration (EC50) with huCD19 ECD turned out to be 0.084 µg/mL; in the test with cyCD19 ECD, 0.255 µg/mL. The “t1/2” value in test [2] came to 43.6 min.

B3: parental humanized clone 8B8 (Fab in bacterial supernatant) (Fab, V domains shown)
VH: QVQLVQSGAEVKKPGASVKVSCKASGYTFTDYIMHWVRQAPGQGLEWMGYINPYNDGSKYTEKFQGRVTMTSDTSISTAYMELSRLRSDDTAVYYCARGTYYYGSALFDYWGQGTTVTVSS
VL: DIVMTQTPLSLSVTPGQPASISCKSSQSLENSNGNTYLNWYLQKPGQSPQLLIYRVSKRFSGVPDRFSGSGSGTDFTLKISRVEAEDVGVYYCLQLTHVPYTFGQGTKLEIK
notes: Soluble Fab with Flag tag from a phagemid, tested as bacterial supernatant; also called Parental 8B8; humanized parental clone 8B8
B3: in test [3], the koff is 0.000301 s⁻¹.

B4: affinity-matured 8B8-derived clone 2B11 (Fab in bacterial supernatant) (Fab, V domains shown)
VH: QVQLVQSGAEVKKPGASVKVSCKASGYTFTDYIMHWVRQAPGQGLEWMGYINPYNDGSKYTEKFQGRVTMTSDTSISTAYMELSRLRSDDTAVYYCARGTYYYGPQLFDYWGQGTTVTVSS
VL: DIVMTQTPLSLSVTPGQPASISCKSSQSLETSTGTTYLNWYLQKPGQSPQLLIYRVSKRFSGVPDRFSGSGSGTDFTLKISRVEAEDVGVYYCLQLLEDPYTFGQGTKLEIK
notes: Soluble Fab with Flag tag, tested as bacterial supernatant; also called 8B8-2B11
Molecule B4 returned a koff in test [3] of 4.37e-06 s⁻¹.

B5: Humanized variant 1 of T84.66 IgG (T84.66-LCHA) (antibody, V domains shown)
VH: QVQLVQSGAEVKKPGSSVKVSCKASGFNIKDTYMHWVRQAPGQGLEWMGRIDPANGNSKYVPKFQGRVTITADTSTSTAYMELSSLRSEDTAVYYCAPFGYYVSDYAMAYWGQGTLVTVSS
VL: EIVLTQSPATLSLSPGERATLSCRAGESVDIFGVGFLHWYQQKPGQAPRLLIYRASNRATGIPARFSGSGSGTDFTLTISSLEPEDFAVYYCQQTNEDPYTFGQGTKLEIK
notes: Tested as IgG
B5 returned an EC50 in test [4] of 1.5 µg/mL.
